This note sets out measurements from paper PMC3446948, “Protection against Th17 Cells Differentiation by an Interleukin-23 Receptor Cytokine-Binding Homology Region” (PLoS ONE, 2012).

The target of one assay is Mouse IL-23 (mouse) (UniProt Q9EQ14).
For another assay, the target named is T1, Human IL-23 (human, UniProt Q9NPF7 20-189; P29460 23-328).
T1 construct: Interleukin-23 subunit alpha (p19), human; subunit of the bought heterodimeric cytokine; Interleukin-12 subunit beta (p40), human; also called human IL-23 complex; source: bought: R&D
T1 sequence (looked up) 1: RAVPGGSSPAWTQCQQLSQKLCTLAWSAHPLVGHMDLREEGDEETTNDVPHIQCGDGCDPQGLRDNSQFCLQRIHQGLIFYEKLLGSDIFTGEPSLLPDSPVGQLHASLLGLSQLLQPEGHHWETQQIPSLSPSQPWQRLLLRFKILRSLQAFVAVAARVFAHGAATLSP
T1 sequence (looked up) 2: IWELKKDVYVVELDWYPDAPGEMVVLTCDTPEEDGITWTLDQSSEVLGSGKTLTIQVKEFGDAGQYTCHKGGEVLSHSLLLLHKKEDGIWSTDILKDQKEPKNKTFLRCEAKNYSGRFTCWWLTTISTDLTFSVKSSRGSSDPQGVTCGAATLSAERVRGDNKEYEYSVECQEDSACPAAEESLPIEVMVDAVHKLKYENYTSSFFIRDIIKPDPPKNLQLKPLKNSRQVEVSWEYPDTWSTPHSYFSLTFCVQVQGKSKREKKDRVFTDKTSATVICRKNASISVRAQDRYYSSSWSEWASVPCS
The assay is described as follows: ELISA; direct binding ELISA: 10 ng/well human IL-23 coated, various concentrations of IL23R-CHR added, bound IL23R-CHR detected by HRP-labelled IL23R mAb; non-linear regression. As to conditions: both partners purified. On the technique in general: In an ELISA, binding on a coated surface is turned into a signal by an enzyme label.

Chain of Mouse IL-23 (mouse) (Q9EQ14 22-196, chain 1 of 2): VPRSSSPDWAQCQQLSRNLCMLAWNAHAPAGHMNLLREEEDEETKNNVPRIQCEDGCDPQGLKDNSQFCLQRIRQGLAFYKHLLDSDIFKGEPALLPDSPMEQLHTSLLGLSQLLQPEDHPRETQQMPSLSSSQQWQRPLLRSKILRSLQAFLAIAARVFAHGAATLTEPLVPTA
Chain of Mouse IL-23 (mouse) (P43432 23-335, chain 2 of 2, further chain): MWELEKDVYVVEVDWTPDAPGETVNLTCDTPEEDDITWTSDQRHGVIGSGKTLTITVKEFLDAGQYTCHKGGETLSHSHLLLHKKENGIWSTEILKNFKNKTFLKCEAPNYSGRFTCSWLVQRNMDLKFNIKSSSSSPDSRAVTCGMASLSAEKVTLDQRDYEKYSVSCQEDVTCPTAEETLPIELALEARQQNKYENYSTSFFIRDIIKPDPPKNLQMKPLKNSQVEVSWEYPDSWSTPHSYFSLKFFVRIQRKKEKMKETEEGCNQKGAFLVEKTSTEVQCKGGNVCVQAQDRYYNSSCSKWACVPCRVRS

B1: Human IL-23 receptor cytokine-binding homology region (IL23R-CHR, amino acid residues 124-313) (domain or fragment)
chain: PPDIPDEVTCVIYEYSGNMTCTWNAGKLTYIDTKYVVHVKSLETEEEQQYLTSSYINISTDSLQGGKKYLVWVQAANALGMEESKQLQIHLDDIVIPSAAVISRAETINATVPKTIIYWDSQTTIEKVSCEMRYKATTNQTWNVKEFDTNFTYVQQSEFYLEPNIKYVFQVRCQETGKRYWQPWSSLFFH
modifications: Expressed in E. coli (non-glycosylated). The Trx-His6 tag was removed by enterokinase. A short vector/primer-derived N-terminal remnant remains and is omitted: printed as 'A', while the NcoI primer …
On to B1, for which the percentage of IL-17a+ cells in mouse CD4+ T cells (flow cytometry) under Th17 polarisation with IL23R-CHR 0, 5 and 25 ug/ml, 72 h; the value given is that at 25 ug/ml with Mouse IL-23 (mouse) worked out at 4.18%. In the assay with Human IL-23, this molecule had an IC50 of 90 nM.

One may read the IC50 as the concentration needed to halve the response being measured. Read a high IC50 as weaker potency.
